Target: human CD3, on primary human T cells (human) (UniProt P07766)
Assay: cell-based or functional assay

Chain of human CD3, on primary human T cells (human) (P07766 23-207 limits assumed): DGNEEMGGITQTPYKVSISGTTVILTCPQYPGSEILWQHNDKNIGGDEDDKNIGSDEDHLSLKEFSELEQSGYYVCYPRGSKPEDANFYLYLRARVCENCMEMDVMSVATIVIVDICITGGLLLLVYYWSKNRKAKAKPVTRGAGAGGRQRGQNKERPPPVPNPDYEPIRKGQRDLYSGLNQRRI

Substance: PGT-121.60 (antibody)
- Ki-67 EC50; CD4 T cells; donor D1597; 7552-infected CEM cells: > 100 µg/mL
- Ki-67 EC50; CD4 T cells; donor D1597; THRO-infected CEM cells: > 100 µg/mL
- Ki-67 EC50; CD4 T cells; donor D1597; uninfected CEM cells: > 100 µg/mL
- Ki-67 EC50; CD4 T cells; donor D2256; 7552-infected CEM cells: > 100 µg/mL
- Ki-67 EC50; CD4 T cells; donor D2256; THRO-infected CEM cells: > 100 µg/mL
- Ki-67 EC50; CD4 T cells; donor D2256; uninfected CEM cells: > 100 µg/mL
- Ki-67 EC50; CD4 T cells; donor D4246; 7552-infected CEM cells: > 100 µg/mL
- Ki-67 EC50; CD4 T cells; donor D4246; THRO-infected CEM cells: > 100 µg/mL
- Ki-67 EC50; CD4 T cells; donor D4246; uninfected CEM cells: > 100 µg/mL
- Ki-67 EC50; CD4 T cells; donor D4279; 7552-infected CEM cells: > 100 µg/mL
- Ki-67 EC50; CD4 T cells; donor D4279; THRO-infected CEM cells: > 100 µg/mL
- Ki-67 EC50; CD4 T cells; donor D4279; uninfected CEM cells: > 100 µg/mL
- Ki-67 EC50; CD8 T cells; donor D1597; 7552-infected CEM cells: > 100 µg/mL
- Ki-67 EC50; CD8 T cells; donor D1597; THRO-infected CEM cells: > 100 µg/mL
- Ki-67 EC50; CD8 T cells; donor D1597; uninfected CEM cells: > 100 µg/mL
- Ki-67 EC50; CD8 T cells; donor D2256; 7552-infected CEM cells: > 100 µg/mL
- Ki-67 EC50; CD8 T cells; donor D2256; THRO-infected CEM cells: > 100 µg/mL
- Ki-67 EC50; CD8 T cells; donor D2256; uninfected CEM cells: > 100 µg/mL
- Ki-67 EC50; CD8 T cells; donor D4246; 7552-infected CEM cells: > 100 µg/mL
- Ki-67 EC50; CD8 T cells; donor D4246; THRO-infected CEM cells: > 100 µg/mL
- Ki-67 EC50; CD8 T cells; donor D4246; uninfected CEM cells: > 100 µg/mL
- Ki-67 EC50; CD8 T cells; donor D4279; 7552-infected CEM cells: > 100 µg/mL
- Ki-67 EC50; CD8 T cells; donor D4279; THRO-infected CEM cells: > 100 µg/mL
- Ki-67 EC50; CD8 T cells; donor D4279; uninfected CEM cells: > 100 µg/mL
- Ki-67 Δ Emax; CD4 T cells; donor D1597; 7552-infected CEM cells: 1%
- Ki-67 Δ Emax; CD4 T cells; donor D1597; THRO-infected CEM cells: -1%
- Ki-67 Δ Emax; CD4 T cells; donor D1597; uninfected CEM cells: 1%
- Ki-67 Δ Emax; CD4 T cells; donor D2256; 7552-infected CEM cells: 0%
- Ki-67 Δ Emax; CD4 T cells; donor D2256; THRO-infected CEM cells: -2%
- Ki-67 Δ Emax; CD4 T cells; donor D2256; uninfected CEM cells: 0%
- Ki-67 Δ Emax; CD4 T cells; donor D4246; 7552-infected CEM cells: 0%
- Ki-67 Δ Emax; CD4 T cells; donor D4246; THRO-infected CEM cells: 0%
- Ki-67 Δ Emax; CD4 T cells; donor D4246; uninfected CEM cells: 0%
- Ki-67 Δ Emax; CD4 T cells; donor D4279; 7552-infected CEM cells: -1%
- Ki-67 Δ Emax; CD4 T cells; donor D4279; THRO-infected CEM cells: 1%
- Ki-67 Δ Emax; CD4 T cells; donor D4279; uninfected CEM cells: 1%
- Ki-67 Δ Emax; CD8 T cells; donor D1597; 7552-infected CEM cells: 0%
- Ki-67 Δ Emax; CD8 T cells; donor D1597; THRO-infected CEM cells: 0%
- Ki-67 Δ Emax; CD8 T cells; donor D1597; uninfected CEM cells: 0%
- Ki-67 Δ Emax; CD8 T cells; donor D2256; 7552-infected CEM cells: 0%
- Ki-67 Δ Emax; CD8 T cells; donor D2256; THRO-infected CEM cells: 0%
- Ki-67 Δ Emax; CD8 T cells; donor D2256; uninfected CEM cells: 0%
- Ki-67 Δ Emax; CD8 T cells; donor D4246; 7552-infected CEM cells: 0%
- Ki-67 Δ Emax; CD8 T cells; donor D4246; THRO-infected CEM cells: 0%
- Ki-67 Δ Emax; CD8 T cells; donor D4246; uninfected CEM cells: 0%
- Ki-67 Δ Emax; CD8 T cells; donor D4279; 7552-infected CEM cells: 0%
- Ki-67 Δ Emax; CD8 T cells; donor D4279; THRO-infected CEM cells: 0%
- Ki-67 Δ Emax; CD8 T cells; donor D4279; uninfected CEM cells: 0%
- PD-1 EC50; CD4 T cells; donor D1597; 7552-infected CEM cells: > 100 µg/mL
- PD-1 EC50; CD4 T cells; donor D1597; THRO-infected CEM cells: > 100 µg/mL
- PD-1 EC50; CD4 T cells; donor D1597; uninfected CEM cells: > 100 µg/mL
- PD-1 EC50; CD4 T cells; donor D2256; 7552-infected CEM cells: > 100 µg/mL
- PD-1 EC50; CD4 T cells; donor D2256; THRO-infected CEM cells: > 100 µg/mL
- PD-1 EC50; CD4 T cells; donor D2256; uninfected CEM cells: > 100 µg/mL
- PD-1 EC50; CD4 T cells; donor D4246; 7552-infected CEM cells: > 100 µg/mL
- PD-1 EC50; CD4 T cells; donor D4246; THRO-infected CEM cells: > 100 µg/mL
- PD-1 EC50; CD4 T cells; donor D4246; uninfected CEM cells: > 100 µg/mL
- PD-1 EC50; CD4 T cells; donor D4279; 7552-infected CEM cells: > 100 µg/mL
- PD-1 EC50; CD4 T cells; donor D4279; THRO-infected CEM cells: > 100 µg/mL
- PD-1 EC50; CD4 T cells; donor D4279; uninfected CEM cells: > 100 µg/mL
- PD-1 EC50; CD8 T cells; donor D1597; 7552-infected CEM cells: > 100 µg/mL
- PD-1 EC50; CD8 T cells; donor D1597; THRO-infected CEM cells: > 100 µg/mL
- PD-1 EC50; CD8 T cells; donor D1597; uninfected CEM cells: > 100 µg/mL
- PD-1 EC50; CD8 T cells; donor D2256; 7552-infected CEM cells: > 100 µg/mL
- PD-1 EC50; CD8 T cells; donor D2256; THRO-infected CEM cells: > 100 µg/mL
- PD-1 EC50; CD8 T cells; donor D2256; uninfected CEM cells: > 100 µg/mL
- PD-1 EC50; CD8 T cells; donor D4246; 7552-infected CEM cells: > 100 µg/mL
- PD-1 EC50; CD8 T cells; donor D4246; THRO-infected CEM cells: > 100 µg/mL
- PD-1 EC50; CD8 T cells; donor D4246; uninfected CEM cells: > 100 µg/mL
- PD-1 EC50; CD8 T cells; donor D4279; 7552-infected CEM cells: > 100 µg/mL
- PD-1 EC50; CD8 T cells; donor D4279; THRO-infected CEM cells: > 100 µg/mL
- PD-1 EC50; CD8 T cells; donor D4279; uninfected CEM cells: > 100 µg/mL
- PD-1 Δ Emax; CD4 T cells; donor D1597; 7552-infected CEM cells: 0%
- PD-1 Δ Emax; CD4 T cells; donor D1597; THRO-infected CEM cells: 1%
- PD-1 Δ Emax; CD4 T cells; donor D1597; uninfected CEM cells: 0%
- PD-1 Δ Emax; CD4 T cells; donor D2256; 7552-infected CEM cells: -2%
- PD-1 Δ Emax; CD4 T cells; donor D2256; THRO-infected CEM cells: 1%
- PD-1 Δ Emax; CD4 T cells; donor D2256; uninfected CEM cells: 3%
- PD-1 Δ Emax; CD4 T cells; donor D4246; 7552-infected CEM cells: 2%
- PD-1 Δ Emax; CD4 T cells; donor D4246; THRO-infected CEM cells: 0%
- PD-1 Δ Emax; CD4 T cells; donor D4246; uninfected CEM cells: 0%
- PD-1 Δ Emax; CD4 T cells; donor D4279; 7552-infected CEM cells: 1%
- PD-1 Δ Emax; CD4 T cells; donor D4279; THRO-infected CEM cells: -2%
- PD-1 Δ Emax; CD4 T cells; donor D4279; uninfected CEM cells: -1%
- PD-1 Δ Emax; CD8 T cells; donor D1597; 7552-infected CEM cells: 0%
- PD-1 Δ Emax; CD8 T cells; donor D1597; THRO-infected CEM cells: 0%
- PD-1 Δ Emax; CD8 T cells; donor D1597; uninfected CEM cells: 0%
- PD-1 Δ Emax; CD8 T cells; donor D2256; 7552-infected CEM cells: 0%
- PD-1 Δ Emax; CD8 T cells; donor D2256; THRO-infected CEM cells: -1%
- PD-1 Δ Emax; CD8 T cells; donor D2256; uninfected CEM cells: 0%
- PD-1 Δ Emax; CD8 T cells; donor D4246; 7552-infected CEM cells: 0%
- PD-1 Δ Emax; CD8 T cells; donor D4246; THRO-infected CEM cells: 0%
- PD-1 Δ Emax; CD8 T cells; donor D4246; uninfected CEM cells: -1%
- PD-1 Δ Emax; CD8 T cells; donor D4279; 7552-infected CEM cells: 0%
- PD-1 Δ Emax; CD8 T cells; donor D4279; THRO-infected CEM cells: 0%
- PD-1 Δ Emax; CD8 T cells; donor D4279; uninfected CEM cells: 0%
